B1: Swc5 subunit (natural protein, yeast)
chain: MPEVETKIIPNEKEDEDEDGYIEEEDEDFQPEKDKLGGGSDDSDASDGGDDYDDGVNRDKGRNKVDYSRIESESGGLIKTRRARQAEEEYAKTHKYESLTVESIPAKVNSIWEELQEASKNRLLSSSGKVGSVLDGSKEARSTTAAQQEDKILIERNYKFAGETVHEKKWVSRSSAEGQEYLNSLKFKQQAPAAPVQLEKAVRTKSNESRQHLRRPLKRPPLLEQIISGGLRPKLTTLEKSQLDWASYVDRAGLNDELVLHNKDGFLARQEFLQRVGSAEDERYKELRRQQLAQQLQQDSEAS
notes: residues 196-303 built in the structure; Stood in the assay as part of m1
B2: Swc6 subunit (natural protein, yeast)
chain: MKALVEEIDKKTYNPDIYFTSLDPQARRYTSKKINKQGTISTSRPVKRINYSLADLEARLYTSRSEGDGNSISRQDDRNSKNSHSFEERYTQQEILQSDRRFMELNTENFSDLPNVPTLLSDLTGVPRDRIESTTKPISQTSDGLSALMGGSSFVKEHSKYGHGWVLKPETLREIQLSYKSTKLPKPKRKNTNRIVALKKVLSSKRNLHSFLDSALLNLMDKNVIYHNVYNKRYFKVLPLITTCSICGGYDSISSCVNCGNKICSVSCFKLHNETRCRNR
notes: Stood in the assay as part of m1

Columns and labels:
Experiment in all cases: cryo-EM structure; SWR1-hexasome complex, 3.5 Å; SWR1 premixed 1:1 with hexasome, 1 mM ADP:BeF, 25 mM HEPES pH 7.5, 50 mM NaCl, 30°C 10 min, glycerol gradient, no crosslinking
Conditions in all cases: both partners purified
S. cerevisiae histone H4 = S. cerevisiae histone H4 (S. cerevisiae, UniProt P02309 1-103)
Swr1 subunit = biological target: T1, Swr1 subunit (yeast, UniProt Q05471 1-1514)
T1 construct: Stood in the assay as part of m1; also called Swr1 motor domains

Arp6 subunit = biological target: T2, Arp6 subunit (yeast, UniProt Q12509 1-438)
T2 construct: Stood in the assay as part of m1
T2 sequence: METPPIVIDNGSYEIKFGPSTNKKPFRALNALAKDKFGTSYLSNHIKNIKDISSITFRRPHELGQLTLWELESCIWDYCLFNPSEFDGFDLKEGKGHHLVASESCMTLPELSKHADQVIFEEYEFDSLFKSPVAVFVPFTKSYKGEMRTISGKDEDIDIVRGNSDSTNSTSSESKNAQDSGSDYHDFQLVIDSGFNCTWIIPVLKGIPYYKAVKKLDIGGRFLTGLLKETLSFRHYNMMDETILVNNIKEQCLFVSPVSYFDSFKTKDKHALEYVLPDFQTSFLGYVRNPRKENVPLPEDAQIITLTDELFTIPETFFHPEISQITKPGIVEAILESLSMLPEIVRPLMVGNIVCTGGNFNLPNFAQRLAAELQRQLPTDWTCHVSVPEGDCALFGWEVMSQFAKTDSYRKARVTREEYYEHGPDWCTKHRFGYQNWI

T1 sequence (Q05471 whole entry, the tested form may be a part): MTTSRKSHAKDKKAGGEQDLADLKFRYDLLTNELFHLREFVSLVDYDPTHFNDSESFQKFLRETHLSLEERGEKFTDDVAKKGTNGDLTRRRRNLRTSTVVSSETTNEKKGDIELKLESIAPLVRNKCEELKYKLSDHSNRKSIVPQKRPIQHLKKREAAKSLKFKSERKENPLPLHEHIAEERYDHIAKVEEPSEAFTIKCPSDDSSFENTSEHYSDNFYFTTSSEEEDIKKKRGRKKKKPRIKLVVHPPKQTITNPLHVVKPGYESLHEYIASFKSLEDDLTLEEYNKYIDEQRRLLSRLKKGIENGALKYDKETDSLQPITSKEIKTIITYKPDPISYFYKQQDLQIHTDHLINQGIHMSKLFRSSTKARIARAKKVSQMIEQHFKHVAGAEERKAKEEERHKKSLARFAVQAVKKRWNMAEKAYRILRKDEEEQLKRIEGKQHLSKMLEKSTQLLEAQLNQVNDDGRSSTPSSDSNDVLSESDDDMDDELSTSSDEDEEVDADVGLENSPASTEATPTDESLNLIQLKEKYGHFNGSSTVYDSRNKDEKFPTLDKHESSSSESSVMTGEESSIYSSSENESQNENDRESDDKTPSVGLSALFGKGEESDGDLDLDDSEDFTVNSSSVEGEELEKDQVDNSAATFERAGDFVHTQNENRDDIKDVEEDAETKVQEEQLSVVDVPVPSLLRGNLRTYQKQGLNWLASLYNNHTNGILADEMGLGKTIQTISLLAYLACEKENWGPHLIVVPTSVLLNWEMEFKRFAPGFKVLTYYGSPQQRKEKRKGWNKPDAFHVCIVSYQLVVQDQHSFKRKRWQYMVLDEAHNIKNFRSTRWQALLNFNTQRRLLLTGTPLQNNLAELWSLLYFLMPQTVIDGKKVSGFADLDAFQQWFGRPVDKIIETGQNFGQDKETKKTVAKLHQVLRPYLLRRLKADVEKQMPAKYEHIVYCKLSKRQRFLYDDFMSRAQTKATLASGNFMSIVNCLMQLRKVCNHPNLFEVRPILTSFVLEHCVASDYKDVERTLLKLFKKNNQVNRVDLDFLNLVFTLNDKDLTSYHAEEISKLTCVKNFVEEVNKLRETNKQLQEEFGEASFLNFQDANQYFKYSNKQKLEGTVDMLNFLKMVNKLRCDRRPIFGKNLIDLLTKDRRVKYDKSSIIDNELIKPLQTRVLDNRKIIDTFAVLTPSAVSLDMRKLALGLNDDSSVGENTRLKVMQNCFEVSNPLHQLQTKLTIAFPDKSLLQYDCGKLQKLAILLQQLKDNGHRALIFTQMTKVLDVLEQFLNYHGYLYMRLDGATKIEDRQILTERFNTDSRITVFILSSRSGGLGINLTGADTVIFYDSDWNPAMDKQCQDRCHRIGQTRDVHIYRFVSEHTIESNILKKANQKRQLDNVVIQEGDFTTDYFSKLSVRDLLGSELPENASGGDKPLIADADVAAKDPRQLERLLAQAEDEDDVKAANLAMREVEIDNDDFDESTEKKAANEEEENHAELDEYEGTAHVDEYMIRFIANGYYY

Row | binding result (S. cerevisiae histone H4) | binding result (Swr1 subunit) | binding result (Arp6 subunit) | Binder
1 | binds | binds | – | B1
2 | – | – | binds | B2
